Measurements: patent US20190233528A1 (published 2019)

Molecular target: T1, recombinant human CD70 (AviTag, polyhistidine tag and chicken tenascin trimerization domain fused to the … (chicken; human, UniProt P10039 110-139, limits assumed)
T1 construct: domain: trimerization domain; Expressed in Expi293, purified by IMAC and SEC; Copies 3 is inferred from the trimerization domain; not shown: AviTag; polyhistidine tag
T1 sequence: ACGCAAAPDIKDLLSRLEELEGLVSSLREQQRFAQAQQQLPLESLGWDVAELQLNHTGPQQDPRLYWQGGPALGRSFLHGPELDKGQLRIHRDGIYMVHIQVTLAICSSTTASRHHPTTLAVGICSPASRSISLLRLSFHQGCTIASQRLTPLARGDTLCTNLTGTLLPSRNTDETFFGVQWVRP
Experiment: SPR (Biacore 8K, 37 C): CD70 captured via anti-AviTag antibody on C1 chip, scFv-Fc as analyte; 1:1 steady state affinity fit (SS KD)
Protocol: The antibody binding kinetics were determined by surface plasmon resonance (Biacore 8K, GE Healthcare Bio-Sciences, Pittsburgh Pa.) at 37° C. in HBS-T+ (0.01 M HEPES pH 7.4, 0.15 M NaCl, 0.05% v/v Tween20, 1 mg/mL BSA). Recombinant human CD70 diluted in HBS-T+ was captured on a C1 chip immobilized with an anti-AviTag™ antibody. Purified anti-CD70 scFv-Fc fusions were serially diluted into HBS-T+, injected at 30 uL/min for 2-4 min, dissociation monitored for 10 min then the surface regenerated with 75 mM phosphoric acid between injections. Buffer cycles were collected for each anti-CD70 scFv-Fc fusion for double-referencing purposes (double-referencing as described in Myszka, D. G. Improving biosensor analysis. J. Mol. Recognit. 12, 279-284 (1999)). Kinetic association rates (kₒₙ) and dissociation rates (koff) were obtained simultaneously by fitting the double-referenced sensorgrams globally to a 1:1 Langmuir with mass transport model using Biacore 8K Evaluation Software (GE Healthcare Bio-Sciences, Pittsburgh Pa.) then used to calculate an equilibrium dissociation constant (KD) from the kinetic rate constants (KD=koff/kₒₙ). The data was fit to a 1:1 steady state affinity model using Biacore 8K Evaluation Software to determine a steady state equilibrium dissociation constant (SS KD) as needed.

- Kd: 1200 nM
B1: P08A02 anti-CD70 scFv-Fc fusion (Fc fusion)
chain: EVQLVQSGAEVKKPGESLKISCKGSGYTFTNYWIAWVRQMPGKGLEWMGIIYPDGSDTRYSPSFQGQVTISADKSISTAYLQWSSLKASDTAMYYCARDITSWYYGEPAFDIWGQGTLVTVSSGGGGSGGGGSGGGGSGGGGSELQSVLTQPPSASGTPGQRVTISCSGSSSNIGSNYVYWYQQLPGTAPKLLIYRNNQRPSGVPDRFSGSKSGTSASLAISGLRSEDEADYYCATWDDSLGSPVFGTGTKLTVL
notes: scFv-Fc expressed in Expi293; not shown: part of the hinge and Fc from a modified human IgG2
